Laboratory results taken from the supplement of paper PMC7125110.
± gives the standard error. Variants at the floor of the assay were thinned out.

B1: glmS ribozyme (parent)
chain: AUAAAAGCGCCAGAACUACAGAAAUGUAGUUGACGAGGAGGAGGUUUAUCGAAUUUUCGGCGGAUGCCUCCAAA

Tests used:
Settings in all cases: with glucosamine-6-phosphate
[1] = variants of: B1; assay: self-cleavage kobs at 40 uM GlcN6P; higher = faster cleavage; RNA array
Outline: (§1)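 Tiles bearing barcoded ribozyme variants, transcribed in situ by E. coli RNA polymerase on sequenced MiSeq chips, were imaged over ~14 h at 37 °C using a hybridised Cy3 probe. Glucosamine-6-phosphate was supplied at 40 μM to 10 mM in HEPES/KCl/Mg(OAc)2 buffer. kobs came from one- or two-exponential decay fits to normalised per-tile medians, and weighted Michaelis–Menten fits then provided kcat and KM.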

[2] = variants of: B1; assay: self-cleavage kobs at 160 uM GlcN6P; higher = faster cleavage; RNA array
Outline: as §1

[3] = variants of: B1; assay: self-cleavage kobs at 640 uM GlcN6P; higher = faster cleavage; RNA array
Outline: as §1

[4] = variants of: B1; assay: self-cleavage kobs at 2500 uM GlcN6P; higher = faster cleavage; RNA array
Outline: as §1

[5] = variants of: B1; assay: self-cleavage kobs at 10000 uM GlcN6P; higher = faster cleavage; RNA array
Outline: as §1

| Variant | self-cleavage kobs at 40 uM GlcN6P [1] [s⁻¹] | self-cleavage kobs at 160 uM GlcN6P [2] [s⁻¹] | self-cleavage kobs at 640 uM GlcN6P [3] [s⁻¹] | self-cleavage kobs at 2500 uM GlcN6P [4] [s⁻¹] | self-cleavage kobs at 10000 uM GlcN6P [5] [s⁻¹] |
| --- | --- | --- | --- | --- | --- |
| U31G U55A | 0.000446 ± 7.1e-05 | 0.00128 ± 0.00045 | 0.00221 ± 0.00041 | 0.00465 ± 0.0011 | 0.0118 ± 0.0023 |
| U31C C68A | < 1e-05 | – | – | – | < 1e-05 |
| U31G A48U | < 1e-05 | – | – | 8.46e-05 ± 1.6e-05 | 5.93e-05 ± 2.1e-05 |
| G32A C70U | 6.22e-05 ± 6.9e-06 | 0.000126 ± 2.7e-05 | 0.000627 ± 9.7e-05 | 0.000902 ± 0.00023 | 0.00374 ± 0.00046 |
| A33G A64C | < 1e-05 | < 1e-05 | < 1e-05 | < 1e-05 | < 1e-05 |
| A33C A52U | < 1e-05 | – | < 1e-05 | – | < 1e-05 |
| U31G G43C | < 1e-05 | < 1e-05 | < 1e-05 | < 1e-05 | – |
| A33C G44C U57A A64U | < 1e-05 | < 1e-05 | < 1e-05 | < 1e-05 | < 1e-05 |
| U31A U56A | 0.000218 ± 3.2e-05 | – | 0.00221 ± 0.00061 | 0.00123 ± 0.0005 | 0.00967 ± 0.0011 |
| C34A G44A | < 1e-05 | < 1e-05 | < 1e-05 | < 1e-05 | < 1e-05 |
| G32U C58G G60U | < 1e-05 | – | – | – | – |
| G32C G51A G66A | < 1e-05 | – | < 1e-05 | < 1e-05 | < 1e-05 |
| G32C U57A | < 1e-05 | – | – | – | – |
| G32U A36G G41C A52U C67A | < 1e-05 | – | – | – | – |
| U31C U69C C70A | < 1e-05 | – | – | – | – |
| G32U C34A A48U C70A | < 1e-05 | – | – | – | – |
| U31C U56G | 0.000154 ± 1.9e-05 | 0.000413 ± 9.2e-05 | 0.000899 ± 0.00013 | 0.00194 ± 0.0003 | 0.00757 ± 0.00091 |
| U31G A64U | < 1e-05 | < 1e-05 | < 1e-05 | < 1e-05 | – |
| G32C U65A C67A | 0.000151 ± 3.6e-05 | – | 0.000426 ± 0.0001 | – | 0.00023 ± 5.9e-05 |
| G32U G63U | < 1e-05 | – | – | < 1e-05 | < 1e-05 |
| A33C G41A A42C G63C C67U | < 1e-05 | – | – | < 1e-05 | < 1e-05 |
| U31G U54G C67G C68A C70G | 4.46e-05 ± 2.2e-05 | – | – | 0.000243 ± 6.9e-05 | – |

| Variant | self-cleavage kobs at 40 uM GlcN6P [1] [s⁻¹] | self-cleavage kobs at 160 uM GlcN6P [2] [s⁻¹] | self-cleavage kobs at 640 uM GlcN6P [3] [s⁻¹] | self-cleavage kobs at 2500 uM GlcN6P [4] [s⁻¹] | self-cleavage kobs at 10000 uM GlcN6P [5] [s⁻¹] |
| --- | --- | --- | --- | --- | --- |
| C34A G62A | < 1e-05 | < 1e-05 | < 1e-05 | < 1e-05 | < 1e-05 |
| G32U A42U C58U | < 1e-05 | – | – | – | 3.73e-05 ± 1.3e-05 |
| C34A C61A G63U | < 1e-05 | – | – | – | < 1e-05 |
| G32A G59C | < 1e-05 | < 1e-05 | < 1e-05 | < 1e-05 | – |
| U31C G32A G60U | < 1e-05 | – | – | < 1e-05 | < 1e-05 |
| U31G A36G U69A | < 1e-05 | – | – | – | < 1e-05 |
| A33G U56A | < 1e-05 | < 1e-05 | < 1e-05 | – | < 1e-05 |
| U31G G44A | < 1e-05 | – | – | 5.95e-05 ± 2.1e-05 | 9.7e-05 ± 2.6e-05 |
| A33G G40U U49C | < 1e-05 | – | – | – | < 1e-05 |
| C34G G63C | < 1e-05 | < 1e-05 | < 1e-05 | – | < 1e-05 |
| G32A U54G G59A | < 1e-05 | – | – | – | – |
| U31A U55G | 0.000331 ± 5.6e-05 | 0.000659 ± 9.3e-05 | 0.0036 ± 0.00064 | 0.00546 ± 0.0012 | 0.0123 ± 0.0044 |
| G32A G37C A42U | < 1e-05 | – | – | – | – |
| A33U A48U | < 1e-05 | < 1e-05 | < 1e-05 | – | < 1e-05 |
| A33U U46A | < 1e-05 | < 1e-05 | < 1e-05 | – | – |
| C34G A64G | < 1e-05 | < 1e-05 | < 1e-05 | < 1e-05 | < 1e-05 |
| C34U A39G | < 1e-05 | < 1e-05 | < 1e-05 | < 1e-05 | < 1e-05 |
| G32A A53U U65C | < 1e-05 | < 1e-05 | < 1e-05 | – | – |
| G32U G63U C71A | < 1e-05 | – | < 1e-05 | – | < 1e-05 |
| C34G G37A G44C C50G A53G G66U | < 1e-05 | – | – | – | < 1e-05 |
| C34U A52G | < 1e-05 | < 1e-05 | – | – | < 1e-05 |
| G32U A64G C71U | < 1e-05 | – | – | 0.000459 ± 0.00016 | 0.000175 ± 3.6e-05 |

| Variant | self-cleavage kobs at 40 uM GlcN6P [1] [s⁻¹] | self-cleavage kobs at 160 uM GlcN6P [2] [s⁻¹] | self-cleavage kobs at 640 uM GlcN6P [3] [s⁻¹] | self-cleavage kobs at 2500 uM GlcN6P [4] [s⁻¹] | self-cleavage kobs at 10000 uM GlcN6P [5] [s⁻¹] |
| --- | --- | --- | --- | --- | --- |
| G32A U47G U57G | < 1e-05 | – | – | – | – |
| G32A A39C G44U | < 1e-05 | – | – | – | < 1e-05 |
| G32U C58G A64G C67A | 7.51e-05 ± 2.6e-05 | – | – | – | 0.000152 ± 2.4e-05 |
| G32A G44U | < 1e-05 | – | < 1e-05 | – | – |
| C34G G41A | < 1e-05 | < 1e-05 | < 1e-05 | – | < 1e-05 |
| C34G G41C | < 1e-05 | < 1e-05 | – | < 1e-05 | < 1e-05 |
| G32U A36C A53U U54A G63U | < 1e-05 | – | – | – | < 1e-05 |
| A33U C50G C71G | 0.000128 ± 2.3e-05 | – | – | – | 0.0002 ± 4.2e-05 |
| C34A G43C | < 1e-05 | < 1e-05 | < 1e-05 | – | < 1e-05 |
| U31C U45A G60A C67A | < 1e-05 | < 1e-05 | – | – | – |
| C34A C50U | < 1e-05 | < 1e-05 | < 1e-05 | < 1e-05 | < 1e-05 |
| C34A U47G U54G G59U C68G | 0.000664 ± 0.0002 | – | – | – | 0.000474 ± 0.00012 |
| G32C A33U | < 1e-05 | < 1e-05 | < 1e-05 | < 1e-05 | – |
| G32C G66U | < 1e-05 | < 1e-05 | – | – | – |
| A33U G60A | < 1e-05 | < 1e-05 | < 1e-05 | – | – |
| G32U A52G C68G | 0.000277 ± 9.2e-05 | – | – | – | 0.000398 ± 9.5e-05 |
| U31A U49G C71U | < 1e-05 | – | – | – | – |
| C34A U56C | < 1e-05 | – | < 1e-05 | < 1e-05 | < 1e-05 |
| A33U G62C | < 1e-05 | – | < 1e-05 | – | – |
| U31C G32C G35A G59U G66U C71U | < 1e-05 | – | – | < 1e-05 | < 1e-05 |
| U31C C70U | 0.000152 ± 1.5e-05 | 0.000343 ± 4.1e-05 | 0.000731 ± 6.7e-05 | 0.00284 ± 0.00074 | – |
| G32A C67G C70U | < 1e-05 | – | – | – | – |

| Variant | self-cleavage kobs at 40 uM GlcN6P [1] [s⁻¹] | self-cleavage kobs at 160 uM GlcN6P [2] [s⁻¹] | self-cleavage kobs at 640 uM GlcN6P [3] [s⁻¹] | self-cleavage kobs at 2500 uM GlcN6P [4] [s⁻¹] | self-cleavage kobs at 10000 uM GlcN6P [5] [s⁻¹] |
| --- | --- | --- | --- | --- | --- |
| G32U C34G | < 1e-05 | < 1e-05 | < 1e-05 | – | < 1e-05 |
| C34G A42G | < 1e-05 | – | < 1e-05 | < 1e-05 | < 1e-05 |
| G32A A36C U45C C70U | < 1e-05 | – | – | – | < 1e-05 |
| C34A G43C A48G | < 1e-05 | – | – | – | – |
| G32C U47G C67G | 0.000392 ± 0.00015 | – | – | – | 6.01e-05 ± 2.5e-05 |
| C34A G37A A48U | < 1e-05 | – | < 1e-05 | < 1e-05 | < 1e-05 |
| G32U G37U A39G | < 1e-05 | – | – | < 1e-05 | – |
| C34A U56C G63A | < 1e-05 | – | – | – | < 1e-05 |
| C34A G59U | < 1e-05 | < 1e-05 | < 1e-05 | < 1e-05 | < 1e-05 |
| A33G U47A | < 1e-05 | – | – | – | < 1e-05 |
| A33C G40C G44U C50U | < 1e-05 | – | – | < 1e-05 | – |
| C34G A53G U56G C67U | < 1e-05 | – | – | – | – |
| A33G G66A | < 1e-05 | < 1e-05 | – | – | < 1e-05 |
| C34A G40C U46C | < 1e-05 | – | – | – | – |
| G32A C61G U69C | 3.85e-05 ± 1.8e-05 | – | – | 7.4e-05 ± 2.3e-05 | 3.49e-05 ± 1.7e-05 |
| A33C G63U | < 1e-05 | – | < 1e-05 | < 1e-05 | < 1e-05 |
| A33C G63C | < 1e-05 | < 1e-05 | – | < 1e-05 | < 1e-05 |
| G32C U47C | < 1e-05 | < 1e-05 | – | – | – |
| A33G C50G G66U | 0.000106 ± 2.6e-05 | – | 0.000115 ± 5.2e-05 | 0.000301 ± 0.0001 | 5.3e-05 ± 2.2e-05 |
| A33G U65G | < 1e-05 | < 1e-05 | < 1e-05 | < 1e-05 | < 1e-05 |
| A33C G35C | < 1e-05 | < 1e-05 | < 1e-05 | – | < 1e-05 |
| A33C A36G G40A | < 1e-05 | – | < 1e-05 | < 1e-05 | < 1e-05 |
